{"source": "patent US20150291952", "biological_target": "CHK2 (UniProt O96017)", "sequence (O96017 whole entry)": "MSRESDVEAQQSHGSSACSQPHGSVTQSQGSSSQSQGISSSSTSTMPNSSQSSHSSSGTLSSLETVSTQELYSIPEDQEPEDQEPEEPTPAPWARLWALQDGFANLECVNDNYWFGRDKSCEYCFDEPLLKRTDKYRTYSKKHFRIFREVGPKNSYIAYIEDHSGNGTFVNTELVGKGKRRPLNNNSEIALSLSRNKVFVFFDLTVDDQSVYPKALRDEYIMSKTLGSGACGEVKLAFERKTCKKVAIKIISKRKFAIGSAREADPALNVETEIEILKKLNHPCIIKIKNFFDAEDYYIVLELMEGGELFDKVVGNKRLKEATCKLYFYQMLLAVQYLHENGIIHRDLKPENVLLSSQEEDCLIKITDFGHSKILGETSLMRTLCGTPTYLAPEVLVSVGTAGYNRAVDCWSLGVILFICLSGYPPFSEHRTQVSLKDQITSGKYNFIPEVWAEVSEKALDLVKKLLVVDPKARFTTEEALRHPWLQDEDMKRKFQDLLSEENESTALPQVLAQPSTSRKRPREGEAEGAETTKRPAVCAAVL", "assay": "EMSA", "conditions": "SEQ:22 is the DNA template strand, RNA is its reverse complement"}
{"sequence": "AAGCUUCGUCAAGUCUGCAGUGAANNNNNNNNNNNNNNNNNNNNNNNNNNNNNNNNNNNNNNNNNNNNNNNNNNNNNNNNNNNNNNNNNNNNNNGAAUUCGUAGAUGUGGAUCCAUUCCC [CHK2 RAPID Cycle 2 pool]", "values": [{"measurement": "Kd", "setting": "bulk pool, 65% bound at highest protein", "result": 390, "unit": "nM"}]}
{"sequence": "AAGCUUCGUCAAGUCUGCAGUGAANNNNNNNNNNNNNNNNNNNNNNNNNNNNNNNNNNNNNNNNNNNNNNNNNNNNNNNNNNNNNNNNNNNNNNGAAUUCGUAGAUGUGGAUCCAUUCCC [CHK2 RAPID Cycle 4 pool]", "values": [{"measurement": "Kd", "setting": "bulk pool, 72% bound at highest protein", "result": 209, "unit": "nM"}]}
{"sequence": "AAGCUUCGUCAAGUCUGCAGUGAANNNNNNNNNNNNNNNNNNNNNNNNNNNNNNNNNNNNNNNNNNNNNNNNNNNNNNNNNNNNNNNNNNNNNNGAAUUCGUAGAUGUGGAUCCAUUCCC [CHK2 RAPID Cycle 6 pool]", "values": [{"measurement": "Kd", "setting": "bulk pool, 87% bound at highest protein", "result": 191, "unit": "nM"}]}
{"sequence": "AAGCUUCGUCAAGUCUGCAGUGAANNNNNNNNNNNNNNNNNNNNNNNNNNNNNNNNNNNNNNNNNNNNNNNNNNNNNNNNNNNNNNNNNNNNNNGAAUUCGUAGAUGUGGAUCCAUUCCC [CHK2 SELEX Cycle 3 pool]", "values": [{"measurement": "Kd", "setting": "bulk pool, 69% bound, FP Kd 1.6-fold higher (FIG. 8)", "result": 315, "unit": "nM"}]}
{"sequence": "AAGCUUCGUCAAGUCUGCAGUGAANNNNNNNNNNNNNNNNNNNNNNNNNNNNNNNNNNNNNNNNNNNNNNNNNNNNNNNNNNNNNNNNNNNNNNGAAUUCGUAGAUGUGGAUCCAUUCCC [CHK2 SELEX Cycle 6 pool]", "values": [{"measurement": "Kd", "setting": "bulk pool, 86% bound, FP Kd 1.6-fold higher (FIG. 8)", "result": 281, "unit": "nM"}]}
{"sequence": "AAGCUUCGUCAAGUCUGCAGUGAANNNNNNNNNNNNNNNNNNNNNNNNNNNNNNNNNNNNNNNNNNNNNNNNNNNNNNNNNNNNNNNNNNNNNNGAAUUCGUAGAUGUGGAUCCAUUCCC [N70 starting RNA library]", "values": [{"measurement": "Kd", "setting": "starting library, 59% bound at highest protein", "result": "> 1000", "unit": "nM"}]}
